Biological target: endogenous actin of neonatal rat cardiomyocytes (rat (endogenous in neonatal rat cardiomyocytes)) (UniProt P68035)
Assay: co-sedimentation; G-actin/F-actin fractionation of lysates of neonatal rat cardiomyocytes transduced with mCherry or mCherry-Tpm1.1 (G-Actin/F-actin In Vivo Assay Biochem Kit); ultracentrifugation 100,000 x g, 37 °C, 1 h; supernatant and pellet immunoblotted

Row | Substance | percent of CAP2 in the F-actin fraction (cells expressing mCherry) [%] | percent of CAP2 in the F-actin fraction (cells expressing mCherry-Tpm1.1) [%] | percent of Tmod1 in the F-actin fraction (cells expressing mCherry) [%] | percent of Tmod1 in the F-actin fraction (cells expressing mCherry-Tpm1.1) [%]
1 | endogenous CAP2 of neonatal rat cardiomyocytes (from UniProt P52481 1-477) (natural protein) | 28.6 | 25 | – | –
2 | endogenous Tmod1 of neonatal rat cardiomyocytes (from UniProt P70567 1-359) (natural protein) | – | – | 42.7 | 65.6
